Source: US20220315554A1, “COMPOUNDS COMPRISING A […] LIGAND AND USE THEREOF” (priority 2019, published 2022)
Bridge positions count the residues as written; N and C are the ends. * marks the point of attachment. tMeBn(DOTA-AET) = Cys-Cys bridge (thioethers) carrying DOTA-AET; tMeBn(DOTA-PP) = Cys-Cys bridge (thioethers) carrying DOTA-PP; Hexanoyl = CCCCCC(=O)*

How the values were obtained:
Conditions in all cases: remark: other sources report otherwise
[1] = biological target: T1, Potassium Channel hERG (human) (human), Q12809; test: [3H] Dofetilide displacement, 10 uM compound
T1 chain: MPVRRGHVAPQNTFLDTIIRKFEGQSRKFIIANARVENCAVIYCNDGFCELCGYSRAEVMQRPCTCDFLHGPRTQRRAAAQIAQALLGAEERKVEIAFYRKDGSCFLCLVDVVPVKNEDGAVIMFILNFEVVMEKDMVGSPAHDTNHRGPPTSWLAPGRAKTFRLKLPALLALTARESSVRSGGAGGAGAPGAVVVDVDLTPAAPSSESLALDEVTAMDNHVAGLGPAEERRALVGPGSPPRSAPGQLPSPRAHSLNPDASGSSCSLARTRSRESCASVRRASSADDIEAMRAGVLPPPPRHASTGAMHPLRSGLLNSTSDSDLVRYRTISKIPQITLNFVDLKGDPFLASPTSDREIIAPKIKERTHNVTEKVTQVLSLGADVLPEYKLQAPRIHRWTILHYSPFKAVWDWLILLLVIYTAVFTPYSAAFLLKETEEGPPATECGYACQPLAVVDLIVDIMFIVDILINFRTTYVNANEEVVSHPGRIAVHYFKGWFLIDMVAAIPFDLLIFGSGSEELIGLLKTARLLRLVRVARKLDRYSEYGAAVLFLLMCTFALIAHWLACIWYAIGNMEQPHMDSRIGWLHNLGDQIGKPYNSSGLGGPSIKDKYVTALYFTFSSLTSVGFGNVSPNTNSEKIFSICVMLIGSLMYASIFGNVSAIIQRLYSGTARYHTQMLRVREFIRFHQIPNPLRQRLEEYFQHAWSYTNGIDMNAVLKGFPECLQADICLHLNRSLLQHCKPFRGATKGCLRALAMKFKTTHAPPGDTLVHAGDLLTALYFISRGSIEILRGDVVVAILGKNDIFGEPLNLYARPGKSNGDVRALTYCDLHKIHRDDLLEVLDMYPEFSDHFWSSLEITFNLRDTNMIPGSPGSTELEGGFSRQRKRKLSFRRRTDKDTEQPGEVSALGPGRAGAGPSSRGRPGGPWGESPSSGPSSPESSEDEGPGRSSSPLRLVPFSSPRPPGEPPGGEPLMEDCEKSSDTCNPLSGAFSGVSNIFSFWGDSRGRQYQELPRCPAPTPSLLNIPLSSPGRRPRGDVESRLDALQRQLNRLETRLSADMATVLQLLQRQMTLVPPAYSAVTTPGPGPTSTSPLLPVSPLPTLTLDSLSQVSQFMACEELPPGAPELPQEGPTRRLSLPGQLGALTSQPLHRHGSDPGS

[2] = biological target: M3 (h) (human (printed (h))), P20309; test: radioligand displacement, 10 uM compound
[3] = biological target: T2, M2 (h) (human (printed (h))), P08172; test: radioligand displacement, 10 uM compound
T2 chain: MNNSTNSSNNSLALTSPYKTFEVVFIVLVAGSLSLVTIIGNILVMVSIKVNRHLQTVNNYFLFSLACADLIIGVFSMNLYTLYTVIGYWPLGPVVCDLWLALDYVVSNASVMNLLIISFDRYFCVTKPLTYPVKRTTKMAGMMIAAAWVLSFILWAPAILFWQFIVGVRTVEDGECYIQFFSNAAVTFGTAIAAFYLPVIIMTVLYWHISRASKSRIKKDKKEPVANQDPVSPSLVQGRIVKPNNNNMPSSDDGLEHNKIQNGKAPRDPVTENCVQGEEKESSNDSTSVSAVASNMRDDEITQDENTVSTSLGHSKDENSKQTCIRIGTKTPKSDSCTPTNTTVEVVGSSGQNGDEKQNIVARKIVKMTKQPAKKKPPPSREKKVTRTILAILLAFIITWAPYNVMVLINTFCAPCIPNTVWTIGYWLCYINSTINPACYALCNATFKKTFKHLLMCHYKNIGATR

[4] = biological target: T3, M1 (h) (human (printed (h))), P11229; test: radioligand displacement, 10 uM compound
T3 chain: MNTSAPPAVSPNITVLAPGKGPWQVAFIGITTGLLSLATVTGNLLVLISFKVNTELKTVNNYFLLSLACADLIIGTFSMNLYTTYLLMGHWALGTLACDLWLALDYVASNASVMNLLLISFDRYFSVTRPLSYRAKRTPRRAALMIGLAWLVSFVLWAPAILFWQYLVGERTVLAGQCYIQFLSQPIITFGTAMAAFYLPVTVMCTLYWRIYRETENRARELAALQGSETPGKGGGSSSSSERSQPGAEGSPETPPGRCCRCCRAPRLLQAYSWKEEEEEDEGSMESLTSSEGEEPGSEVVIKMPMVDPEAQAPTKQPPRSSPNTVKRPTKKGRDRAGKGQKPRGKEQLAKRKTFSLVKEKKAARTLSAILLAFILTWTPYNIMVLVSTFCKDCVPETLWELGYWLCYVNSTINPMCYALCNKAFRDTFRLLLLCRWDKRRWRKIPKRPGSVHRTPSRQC

[5] = biological target: norepinephrine transporter (h) (human (printed (h))), P23975; test: radioligand displacement, 10 uM compound
Sequence of norepinephrine transporter (h) (human (printed (h))), P23975 (P23975 whole entry): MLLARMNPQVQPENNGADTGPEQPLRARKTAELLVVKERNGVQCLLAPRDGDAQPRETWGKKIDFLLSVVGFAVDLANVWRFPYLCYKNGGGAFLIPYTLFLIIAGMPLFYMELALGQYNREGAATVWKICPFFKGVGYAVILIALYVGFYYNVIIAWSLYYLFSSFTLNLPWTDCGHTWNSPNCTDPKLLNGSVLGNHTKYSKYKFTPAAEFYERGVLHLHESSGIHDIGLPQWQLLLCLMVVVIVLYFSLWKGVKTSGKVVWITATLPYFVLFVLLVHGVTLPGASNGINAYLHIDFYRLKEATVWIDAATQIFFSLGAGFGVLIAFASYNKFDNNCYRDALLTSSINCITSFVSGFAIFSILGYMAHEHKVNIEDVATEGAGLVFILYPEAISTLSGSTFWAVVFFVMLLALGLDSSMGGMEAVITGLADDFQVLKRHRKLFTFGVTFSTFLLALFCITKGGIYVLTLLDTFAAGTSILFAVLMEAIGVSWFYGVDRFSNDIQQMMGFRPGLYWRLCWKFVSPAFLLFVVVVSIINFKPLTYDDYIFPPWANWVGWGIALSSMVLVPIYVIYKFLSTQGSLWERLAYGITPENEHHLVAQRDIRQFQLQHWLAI

[6] = biological target: T4, A2A (h) (human (printed (h))), P29274; test: radioligand displacement, 10 uM compound
T4 chain: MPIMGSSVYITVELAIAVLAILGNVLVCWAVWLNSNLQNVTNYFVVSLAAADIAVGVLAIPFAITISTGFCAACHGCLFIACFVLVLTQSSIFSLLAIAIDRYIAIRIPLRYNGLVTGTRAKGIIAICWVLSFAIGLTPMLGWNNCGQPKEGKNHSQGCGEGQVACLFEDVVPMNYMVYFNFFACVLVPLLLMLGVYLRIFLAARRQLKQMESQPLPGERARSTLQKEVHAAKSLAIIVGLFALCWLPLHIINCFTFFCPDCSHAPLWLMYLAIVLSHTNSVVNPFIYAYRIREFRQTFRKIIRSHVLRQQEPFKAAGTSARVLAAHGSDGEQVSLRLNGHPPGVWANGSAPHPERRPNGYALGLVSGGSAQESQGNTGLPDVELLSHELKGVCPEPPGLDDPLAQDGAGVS

[7] = biological target: 5-HT2B (h) (human (printed (h))), P41595; test: radioligand displacement, 10 uM compound
[8] = biological target: 5-HT2A (h) (human (printed (h))), P28223; test: radioligand displacement, 10 uM compound
Sequence of 5-HT2A (h) (human (printed (h))), P28223 (P28223 whole entry): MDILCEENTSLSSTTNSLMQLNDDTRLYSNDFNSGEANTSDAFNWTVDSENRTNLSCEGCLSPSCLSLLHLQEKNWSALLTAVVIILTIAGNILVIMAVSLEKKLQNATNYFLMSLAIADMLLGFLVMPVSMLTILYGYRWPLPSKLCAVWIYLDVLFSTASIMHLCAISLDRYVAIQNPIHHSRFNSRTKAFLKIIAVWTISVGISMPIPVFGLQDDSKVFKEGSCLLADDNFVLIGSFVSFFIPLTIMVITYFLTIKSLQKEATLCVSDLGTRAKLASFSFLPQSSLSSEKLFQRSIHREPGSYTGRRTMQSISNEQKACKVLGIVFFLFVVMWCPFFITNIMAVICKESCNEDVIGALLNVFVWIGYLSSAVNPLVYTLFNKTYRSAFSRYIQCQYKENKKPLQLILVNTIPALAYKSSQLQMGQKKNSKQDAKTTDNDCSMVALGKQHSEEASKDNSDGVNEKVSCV

% Inhibition of Specific Binding [2] [%]	% Inhibition of Specific Binding [3] [%]	% Inhibition of Specific Binding [4] [%]	% Inhibition of Specific Binding [5] [%]	% Inhibition of Specific Binding [6] [%]	% Inhibition of Specific Binding [7] [%]	% Inhibition of Specific Binding [8] [%]	Binder	% Inhibition of Specific Binding [1] [%]
10	-4	6	-8	-4	2	-2	Hexanoyl-CPPTQFCD-NH2 (linker 1-7 via tMeBn(DOTA-PP)) [Hex-[Cys(tMeBn(DOTA-PP))-Pro-Pro-Thr-Gln-Phe-Cys]-Asp-NH2 (3BP-3407)]	2
1	7	8	-5	-16	3	4	Hexanoyl-CPPTQFC-OH (linker 1-7 via tMeBn(DOTA-AET)) [Hex-[Cys(tMeBn(DOTA-AET))-Pro-Pro-Thr-Gln-Phe-Cys]-OH (3BP-3554)]	6
